For this assay, the target named is m19-humBBz CAR (mouse; human) (UniProt P01731). As to the kind of experiment: cell-based or functional assay.

These results are taken from US20230265184A1.

B1: TRAF1 DN (184-417aa) (protein, UniProt Q13077 184-416, looked up, not shown: small tags and cut ends; large carriers)
chain: EKLLAELEGKLRVFENIVAVLNKEVEASHLALATSIHQSQLDRERILSLEQRVVELQQTLAQKDQALGKLEQSLRLMEEASFDGTFLWKITNVTRRCHESACGRTVSLFSPAFYTAKYGYKLCLRLYLNGDGTGKRTHLSLFIVIMRGEYDALLPWPFRNKVTFMLLDQNNREHAIDAFRPDLSSASFQRPQSETNVASGCPLFFPLSKLQSPKHAYVKDDTMFLKCIVETST
B1 displayed an NF-κB signaling in NF-κB/293/GFP-Luc reporter cells, GFP % of 13.4% and an NF-κB signaling in NF-κB/293/GFP-Luc reporter cells, GFP MFI of 1690 MFI.

B2: TRAF3 DN (382-568aa) (protein, UniProt Q13114 382-568, looked up, not shown: small tags and cut ends; large carriers)
chain: ESQLSRHDQMLSVHDIRLADMDLRFQVLETASYNGVLIWKIRDYKRRKQEAVMGKTLSLYSQPFYTGYFGYKMCARVYLNGDGMGKGTHLSLFFVIMRGEYDALLPWPFKQKVTLMLMDQGSSRRHLGDAFKPDPNSSSFKKPTGEMNIASGCPVFVAQTVLENGTYIKDDTIFIKVIVDTSDLPDP
The molecule B2 showed an NF-κB signaling in NF-κB/293/GFP-Luc reporter cells, GFP % of 30.8% and an NF-κB signaling in NF-κB/293/GFP-Luc reporter cells, GFP MFI of 6060 MFI.

B3: TRAF2 DN (87-501aa) (protein, UniProt Q12933 87-501, looked up, not shown: small tags and cut ends; large carriers)
chain: SSSAFPDNAARREVESLPAVCPSDGCTWKGTLKEYESCHEGRCPLMLTECPACKGLVRLGEKERHLEHECPERSLSCRHCRAPCCGADVKAHHEVCPKFPLTCDGCGKKKIPREKFQDHVKTCGKCRVPCRFHAIGCLETVEGEKQQEHEVQWLREHLAMLLSSVLEAKPLLGDQSHAGSELLQRCESLEKKTATFENIVCVLNREVERVAMTAEACSRQHRLDQDKIEALSSKVQQLERSIGLKDLAMADLEQKVLEMEASTYDGVFIWKISDFARKRQEAVAGRIPAIFSPAFYTSRYGYKMCLRIYLNGDGTGRGTHLSLFFVVMKGPNDALLRWPFNQKVTLMLLDQNNREHVIDAFRPDVTSSSFQRPVNDMNIASGCPLFCPVSKMEAKNSYVRDDAIFIKAIVDLTGL
For the molecule B3, the NF-κB signaling in NF-κB/293/GFP-Luc reporter cells, GFP MFI stood at 14300 MFI and the NF-κB signaling in NF-κB/293/GFP-Luc reporter cells, GFP+% was 63.5%.
